Results as given in article PMC2168396 (The EMBO Journal, 2007).
Numbering of substitutions follows the chain as printed. In names and notes the source's numbering stands. Ends that are not written are not given here.

B1: talin 2494–2541 (dimerisation domain) (domain or fragment, mouse, UniProt P26039 2494-2541, looked up)
chain: MVGGIAQIIAAQEEMLRKERELEEARKKLAQIRQQQYKFLPSELRDEH
modifications: also: selenomethionine in derivative used for phasing
B2: talin 2334–2541 (upstream helix deleted) (domain or fragment, mouse, UniProt P26039 2334-2541, looked up)
chain: EADESLNFEEQILEAAKSIAAATSALVKAASAAQRELVAQGKVGAIPANALDDGQWSQGLISAARMVAAATNNLCEAANAAVQGHASQEKLISSAKQVAASTAQLLVACKVKADQDSEAMKRLQAAGNAVKRASDNLVKAAQKAAAFEDQENETVVVKEKMVGGIAQIIAAQEEMLRKERELEEARKKLAQIRQQQYKFLPSELRDEH
B3: talin 2300–2541 Q2388R (domain or fragment, mouse, UniProt P26039 2300-2541, looked up)
chain: DPTVIAENELLGAAAAIEAAAKKLEQLKPRAKPKEADESLNFEEQILEAAKSIAAATSALVKAASAAQRELVAQGKVGAIPANALDDGRWSQGLISAARMVAAATNNLCEAANAAVQGHASQEKLISSAKQVAASTAQLLVACKVKADQDSEAMKRLQAAGNAVKRASDNLVKAAQKAAAFEDQENETVVVKEKMVGGIAQIIAAQEEMLRKERELEEARKKLAQIRQQQYKFLPSELRDEH
B4: talin 2300–2541 R2513A (domain or fragment, mouse, UniProt P26039 2300-2541, looked up)
chain: B3 chain with R89Q, R214A
B5: talin 2300–2541 V2444D (domain or fragment, mouse, UniProt P26039 2300-2541, looked up)
chain: B3 chain with R89Q, V145D
B6: talin 2300–2541 R2510A (domain or fragment, mouse, UniProt P26039 2300-2541, looked up)
chain: B3 chain with R89Q, R211A
B7: talin 2300–2541 V2376D (domain or fragment, mouse, UniProt P26039 2300-2541, looked up)
chain: B3 chain with V77D, R89Q
B8: talin 2300–2541 Q2437E (domain or fragment, mouse, UniProt P26039 2300-2541, looked up)
chain: B3 chain with R89Q, Q138E

Biological target: the molecule itself
Assay: crystal structure

Binder | binding result
B1 | binds

Biological target: the molecule itself
Assay: SEC + other: NMR

Binder | stoichiometry N
B2 | 2
B3 | 2
B4 | 2
B5 | 2
B6 | 2
B7 | 2
B8 | 2

The binders below were run against filamentous actin (F-actin) from rabbit skeletal muscle (rabbit, UniProt P68135 1-377) (assay: co-sedimentation).

Binder | co-sedimentation pellet (% of WT)
B2 | 262 ± 18 % of WT
B3 | 102 ± 9 % of WT
B4 | 66 ± 14 % of WT
B5 | 54 ± 10 % of WT
B6 | 77 ± 5 % of WT
B7 | 95 ± 5 % of WT
B8 | 62 ± 13 % of WT
